In paper PMC3245779:

Biological target: BSG-S variant E92K (Ok(a-) variant) (human)
Test: SPR

In the case of “PfRh5 (purified, SPR analyte) (from UniProt Q8IFM5 25-526) (ligand)”, the fold lower affinity than the BSG reference sequence (equilibrium) is reported as 2 fold.
